Square brackets hold non-standard residues; d marks the D form. Ends that are not written are not given here. Met(O) = CS(=O)CC[C@H](N)C(=O)O; pS = N[C@@H](COP(=O)(O)O)C(=O)O
How the values were obtained:
[1] = target: Recombinant bovine HSC70 (Stressgen) (bovine) (UniProt P19120); test: SPR Biacore 3000, HSC70 immobilised, peptide analyte at 1.56 uM, 1:1 Langmuir fit
[2] = target: Recombinant bovine HSC70 (Stressgen) (bovine) (UniProt P19120); test: SPR Biacore 3000, HSC70 immobilised on CM5, peptide as analyte 1.56-25 uM, 1:1 Langmuir global fit, 25 C
[3] = target: Recombinant bovine HSC70 (Stressgen) (bovine) (UniProt P19120); test: SPR Biacore 3000, HSC70 immobilised, peptide analyte at 25 uM, 1:1 Langmuir fit
[4] = target: Recombinant bovine HSC70 (Stressgen) (bovine) (UniProt P19120); test: SPR Biacore 3000, HSC70 immobilised, peptide analyte at 12.5 uM, 1:1 Langmuir fit
[5] = target: Recombinant bovine HSC70 (Stressgen) (bovine) (UniProt P19120); test: SPR Biacore 3000, HSC70 immobilised, peptide analyte at 6.25 uM, 1:1 Langmuir fit
[6] = target: Recombinant bovine HSC70 (Stressgen) (bovine) (UniProt P19120); test: SPR Biacore 3000, HSC70 immobilised, peptide analyte at 3.12 uM, 1:1 Langmuir fit

Chain of Recombinant bovine HSC70 (Stressgen) (bovine) (P19120 whole entry): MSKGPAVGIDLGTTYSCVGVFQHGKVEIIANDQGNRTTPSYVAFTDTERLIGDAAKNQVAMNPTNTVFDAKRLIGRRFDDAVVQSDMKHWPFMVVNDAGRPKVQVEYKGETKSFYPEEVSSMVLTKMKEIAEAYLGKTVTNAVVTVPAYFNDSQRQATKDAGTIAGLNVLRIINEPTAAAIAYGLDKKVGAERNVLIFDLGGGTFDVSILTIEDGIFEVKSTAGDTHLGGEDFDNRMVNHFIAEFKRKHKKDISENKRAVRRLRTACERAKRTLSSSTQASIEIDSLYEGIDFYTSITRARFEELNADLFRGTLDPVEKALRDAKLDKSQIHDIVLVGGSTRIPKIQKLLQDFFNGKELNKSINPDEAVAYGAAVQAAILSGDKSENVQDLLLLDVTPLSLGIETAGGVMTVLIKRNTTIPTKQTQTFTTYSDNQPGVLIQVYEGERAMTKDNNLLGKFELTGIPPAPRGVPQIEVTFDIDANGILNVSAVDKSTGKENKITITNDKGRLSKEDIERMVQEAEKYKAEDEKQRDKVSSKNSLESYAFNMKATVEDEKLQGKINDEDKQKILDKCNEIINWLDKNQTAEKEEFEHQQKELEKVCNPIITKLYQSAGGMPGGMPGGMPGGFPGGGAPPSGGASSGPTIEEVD

B1: P140 peptide (peptide consisting of SEQ ID NO: 1 in which serine at position 10 is phosphorylated) (peptide)
peptide: RIHMVYSKR[pS]GKPRGYAFIEY
[1]
  Ka: 144000 M⁻¹
  Kd: 6.94 µM
  Req: 15.3 RU
  kobs: 0.00382 s⁻¹
  koff: 0.00312 s⁻¹
[2]
  kon: 450 M⁻¹ s⁻¹
[3]
  Ka: 144000 M⁻¹
  Kd: 6.94 µM
  Req: 65.2 RU
  kobs: 0.0144 s⁻¹
  koff: 0.00312 s⁻¹
[4]
  Ka: 144000 M⁻¹
  Kd: 6.94 µM
  Req: 53.6 RU
  kobs: 0.00874 s⁻¹
  koff: 0.00312 s⁻¹
[5]
  Ka: 144000 M⁻¹
  Kd: 6.94 µM
  Req: 39.5 RU
  kobs: 0.00593 s⁻¹
  koff: 0.00312 s⁻¹
[6]
  Ka: 144000 M⁻¹
  Kd: 6.94 µM
  Req: 25.8 RU
  kobs: 0.00452 s⁻¹
  koff: 0.00312 s⁻¹

B2: P140(MO) peptide (SEQ ID NO: 4; SEQ ID NO: 1 with phosphoserine at position 10 and oxidized methionine at position 4) (peptide)
peptide: RIH[Met(O)]VYSKR[pS]GKPRGYAFIEY
[1]
  Ka: 524000 M⁻¹
  Kd: 1.91 µM
  Req: 17.6 RU
  kobs: 0.004 s⁻¹
  koff: 0.0022 s⁻¹
[2]
  kon: 1150 M⁻¹ s⁻¹
[3]
  Ka: 524000 M⁻¹
  Kd: 1.91 µM
  Req: 36.3 RU
  kobs: 0.031 s⁻¹
  koff: 0.0022 s⁻¹
[4]
  Ka: 524000 M⁻¹
  Kd: 1.91 µM
  Req: 33.9 RU
  kobs: 0.0166 s⁻¹
  koff: 0.0022 s⁻¹
[5]
  Ka: 524000 M⁻¹
  Kd: 1.91 µM
  Req: 29.9 RU
  kobs: 0.0094 s⁻¹
  koff: 0.0022 s⁻¹
[6]
  Ka: 524000 M⁻¹
  Kd: 1.91 µM
  Req: 24.2 RU
  kobs: 0.0058 s⁻¹
  koff: 0.0022 s⁻¹

— patent US20160166636A1
